In patent US20240400654A1:
Residue numbers refer to the chain shown, from its start. Numbers in names are those of the source. Where “and” joins values, the source holds several entries; their conditions need not be identical. Equal entries are not always repeated.

B1: KB001 mouse Fab VL T52A (Fab, V domains shown)
VH: EVQLKQSGPGLVAPSQSLSITCTVSGFSLSIYSVHWVRQPPGKGLEWLGMIWGGGSSDYNSALKSRLSISKDNSKSQVFLKMNSLQTDDTAMYYCARNGNFYAMDYWGQGTSVTVSS
VL: QIVLTQSPAIMSASLGERVTMTCTASSSVSSSFLHWYQQKPGSSPQLWIYSASNLASGVPARFSGSGSGTSYSLTISSMEAEDAATYYCHQYHHSPYIYTFGGGTKLEIK
B2: KB001 mouse Fab VL T24L (Fab, V domains shown)
VH: B1 VH
VL: B1 VL with T24L, A52T
B3: KB001 mouse Fab VL T100G (Fab, V domains shown)
VH: B1 VH
VL: B1 VL with A52T, T100G
B4: KB001 mouse Fab VL T100L (Fab, V domains shown)
VH: B1 VH
VL: B1 VL with A52T, T100L
B5: KB001 mouse Fab VL N54S (Fab, V domains shown)
VH: B1 VH
VL: B1 VL with A52T, N54S
B6: KB001 mouse Fab VL S95Q (Fab, V domains shown)
VH: B1 VH
VL: B1 VL with A52T, S95Q
B7: KB001 mouse Fab VL T100M (Fab, V domains shown)
VH: B1 VH
VL: B1 VL with A52T, T100M
B8: KB001 mouse Fab VL T24G (Fab, V domains shown)
VH: B1 VH
VL: B1 VL with T24G, A52T
B9: KB001 mouse Fab VL T24M (Fab, V domains shown)
VH: B1 VH
VL: B1 VL with T24M, A52T
B10: KB001 mouse Fab VL T100Q (Fab, V domains shown)
VH: B1 VH
VL: B1 VL with A52T, T100Q
B11: KB001 mouse Fab VL T24I (Fab, V domains shown)
VH: B1 VH
VL: B1 VL with T24I, A52T
B12: KB001 mouse Fab VL N54Q (Fab, V domains shown)
VH: B1 VH
VL: B1 VL with A52T, N54Q
B13: KB001 mouse Fab VL S57P (Fab, V domains shown)
VH: B1 VH
VL: B1 VL with A52T, S57P
B14: KB001 mouse Fab VL S57T (Fab, V domains shown)
VH: B1 VH
VL: B1 VL with A52T, S57T
B15: KB001 mouse Fab VL S53N (Fab, V domains shown)
VH: B1 VH
VL: B1 VL with A52T, S53N
B16: KB001 mouse Fab VL L55N (Fab, V domains shown)
VH: B1 VH
VL: B1 VL with A52T, L55N
B17: KB001 mouse Fab VL T100E (Fab, V domains shown)
VH: B1 VH
VL: B1 VL with A52T, T100E
B18: KB001 mouse Fab VL L55P (Fab, V domains shown)
VH: B1 VH
VL: B1 VL with A52T, L55P
B19: KB001 mouse Fab VL H90W (Fab, V domains shown)
VH: B1 VH
VL: B1 VL with A52T, H90W
B20: KB001 mouse Fab VL T24N (Fab, V domains shown)
VH: B1 VH
VL: B1 VL with T24N, A52T
B21: KB001 mouse Fab VL T24Q (Fab, V domains shown)
VH: B1 VH
VL: B1 VL with T24Q, A52T
B22: KB001 mouse Fab VL S57G (Fab, V domains shown)
VH: B1 VH
VL: B1 VL with A52T, S57G
B23: KB001 mouse Fab VL S57N (Fab, V domains shown)
VH: B1 VH
VL: B1 VL with A52T, S57N
B24: KB001 mouse Fab VL T100R (Fab, V domains shown)
VH: B1 VH
VL: B1 VL with A52T, T100R
B25: KB001 mouse Fab VL S57E (Fab, V domains shown)
VH: B1 VH
VL: B1 VL with A52T, S57E
B26: KB001 mouse Fab VL T24A (Fab, V domains shown)
VH: B1 VH
VL: B1 VL with T24A, A52T
B27: KB001 mouse Fab VL T100H (Fab, V domains shown)
VH: B1 VH
VL: B1 VL with A52T, T100H
B28: KB001 mouse Fab VL S57Q (Fab, V domains shown)
VH: B1 VH
VL: B1 VL with A52T, S57Q
B29: KB001 mouse Fab VL N54R (Fab, V domains shown)
VH: B1 VH
VL: B1 VL with A52T, N54R
B30: KB001 mouse Fab VL S53H (Fab, V domains shown)
VH: B1 VH
VL: B1 VL with A52T, S53H
B31: KB001 mouse Fab VL T52S (Fab, V domains shown)
VH: B1 VH
VL: B1 VL with A52S
B32: KB001 mouse Fab VL Y97E (Fab, V domains shown)
VH: B1 VH
VL: B1 VL with A52T, Y97E
B33: KB001 mouse Fab VL T100F (Fab, V domains shown)
VH: B1 VH
VL: B1 VL with A52T, T100F
B34: KB001 mouse Fab VL S53Q (Fab, V domains shown)
VH: B1 VH
VL: B1 VL with A52T, S53Q
B35: KB001 mouse Fab VL T24K/R18S (Fab, V domains shown)
VH: B1 VH
VL: B1 VL with R18S, T24K, A52T
B36: KB001 mouse Fab VL T100S (Fab, V domains shown)
VH: B1 VH
VL: B1 VL with A52T, T100S
B37: KB001 mouse Fab VL T24N/G67D (Fab, V domains shown)
VH: B1 VH
VL: B1 VL with T24N, A52T, G67D
B38: KB001 mouse Fab VL S57R (Fab, V domains shown)
VH: B1 VH
VL: B1 VL with A52T, S57R
B39: KB001 mouse Fab VL T100Y (Fab, V domains shown)
VH: B1 VH
VL: B1 VL with A52T, T100Y
B40: KB001 mouse Fab VL T100W (Fab, V domains shown)
VH: B1 VH
VL: B1 VL with A52T, T100W
B41: KB001 mouse Fab VL S53K (Fab, V domains shown)
VH: B1 VH
VL: B1 VL with A52T, S53K

Target: HRgpA-6H (Porphyromonas gingivalis) (UniProt P28784)
Assay: ELISA, coated HRgpA-6H

Binder | Ratio OD(Variant)/OD(WT) | OD450 nm
B1 | 1.17 and 1.08 (2×) and 0.993 | –
B2 | 0.979 and 0.978 and 0.867 | 0.753 and 0.752 and 0.667
B3 | 1.15 and 1.14 | 0.603 and 0.597
B4 | 1.12 and 1.08 | 0.587 and 0.566
B5 | 1.07 and 0.934 and 0.99 | 0.835 and 0.732 and 0.776
B6 | 1.01 (2×) and 1.02 | 0.931 and 0.936 and 0.927
B7 | 1.12 | 0.589
B8 | 0.892 and 0.956 | 0.686 and 0.735
B9 | 0.975 and 1.04 | 0.75 and 0.797
B10 | 1.12 and 1.14 and 1.15 | 0.586 and 0.596 and 0.604
B11 | 0.964 | 0.741
B12 | 1.11 | 0.868
B13 | 1.05 | 0.858
B14 | 1.03 | 0.843
B15 | 1.06 and 0.898 | 0.838 and 0.707
B16 | 1.04 (2×) and 0.992 | 0.816 and 0.815 and 0.777
B17 | 1.17 and 1.19 and 1.29 | 0.613 and 0.621 and 0.674
B18 | 1.06 and 0.975 and 0.924 | 0.827 and 0.764 and 0.724
B19 | 1.06 | 0.913
B20 | 0.93 and 1.04 | 0.715 and 0.8
B21 | 0.995 | 0.765

Binder | Ratio OD(Variant)/OD(WT) | OD450 nm
B22 | 1.07 and 1.01 | 0.873 and 0.825
B23 | 1.05 | 0.857
B24 | 1.18 | 0.616
B25 | 1.03 | 0.843
B26 | 0.984 | 0.757
B27 | 1.14 and 1.21 | 0.597 and 0.631
B28 | 1.05 and 1.03 | 0.858 and 0.838
B29 | 1.12 | 0.876
B30 | 1.05 and 0.987 | 0.827 and 0.777
B31 | 1.06 | 0.833
B32 | 1 | 0.793
B33 | 1.05 | 0.552
B34 | 1.06 and 0.954 and 0.922 | 0.835 and 0.751 and 0.726
B35 | 0.99 | 0.761
B36 | 1.15 and 1.27 and 1.19 | 0.602 and 0.664 and 0.625
B37 | 0.982 | 0.755
B38 | 1.04 | 0.845 and 0.849
B39 | 1.04 | 0.546
B40 | 1.12 | 0.585
B41 | 1.07 | 0.841
